Reference: publication doi:10.1101/2022.04.25.489454
Read-outs that look alike come from different tables or passages of the source.

Tests used:
[1] = target: stabilized microtubules polymerised from cow brain tubulin (cow (purified from cow brains)) (UniProt Q6B856); test: TIRF microscopy of GFP-protein decoration of immobilized microtubules
[2] = target: full length human GFP-CLASP2α (human) (UniProt O75122); test: optical trap rupture force
[3] = target: full length human GFP-CLASP2α (human) (UniProt O75122); test: TIRF microscopy of microtubules tethered to protein clusters on DNA origami
[4] = target: stabilized microtubules polymerised from cow brain tubulin (cow (purified from cow brains)) (UniProt Q6B856); test: TIRF microscopy of GFP-protein decoration of immobilized microtubules; remark: listed apart in the source

full length human GFP-CLASP2α (from UniProt O75122-3 1-1515) (natural protein)
Kd [1]: 500 pM | end brightness [1]: 594 a.u.

stabilized microtubules polymerised from cow brain tubulin (from UniProt Q6B856 1-445) (complex)
pulling force at 50% survival of the attachment [2]: 14 pN | pulling force withstood without rupture (13 of 39 microtubules) [2]: > 15.2 pN | time for which half of the microtubules stay attached by their end [3]: 4 h

B1: GFP-L-TOG2-S (domain or fragment)
chain: KVPAPKTSGNPANSARKPGSAGGPKVGAGASKEGGAGAVDEDDFIKAFTDVPSIQIYSSRELEETLNKIREILSDDKHDWDQRANALKKIRSLLVAGAAQYDCFFQHLRLLDGALKLSAKDLRSQVVREACITVAHLSTVLGNKFDHGAEAIVPTLFNLVPNSAKVMATSGCAAIRFIIRHTHVPRLIPLITSNCTSKSVPVRRRSFEFLDLLLQEWQTHSLERHAAVLVETIKKGIHDADAEARVEARKTYMGLRNHFPGEAETLYNSLEPSYQKSLQTYLKSSGSVASLPQSDRSSSSSQESLNRPFSSKWSTANPSTVAGRVSAGSSKASSLPGSLQRSRSDIDVNAAAGAKAHHAAGQSVRSGRLGAGALNAGSYASLEDTSDKLDGTASEDGRVRAKLSAPLAGMGNAKADSRGRSRTKMVSQSQPGSRSGSPGRVLTTTALSTVSSGVQRVLVNSASAQKRSKIPRSQGCSREASPSRLSVARSSRIPRPSVSQGCSREASRESSRDTSPVRSFQPLGPGYGISQSS
end brightness [4]: 757 a.u.
